# According to the supplement of paper PMC10126150:
# ± gives the standard deviation of the averaged measurements.
# Tested on: ATP
# Assay: switch fluorescence ratio, 500 uM ATP over buffer (Cy3 cluster intensity, sum of 5 cycles each) (fold (ratio)); higher = stronger signal-on switching upon ATP binding; sequences stand for … in TCGTCGGCAGCGTCAGATGTGTATAAGAGACAGTTTTTTTTTTTTTTTTTTTTTTTTT…TC
# Conditions: aptamer strand: ATP DNA aptamer (quencher-CACCTGGGGGAGTATTGCGGAGGAAGG + anchor), 100 nM annealed; ATP concentration: 500 uM
# In short: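 The fluorescence ratio divides summed target-cycle Cy3 intensity by summed buffer-cycle Cy3 intensity for each cluster and is averaged per switch-domain sequence. Cy3-labelled switching-strand clusters on a modified Illumina MiSeq flow-cell were annealed to 100 nM quencher-labelled ATP aptamer, then imaged in selection buffer and again after 15 min with 500 uM ATP at 22 °C. Five such cycles were run, with NaOH stripping and re-annealing between them, and clusters outside 100-1000 RFU were excluded.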
# 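Note: ATP exposure 15 min at 22 °C before imaging.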
row,Sequence,switch fluorescence ratio
1,CGATCCCATT,1.05 ± 0.037
2,CGATCTGCTC,1.06 ± 0.025
3,CGATGGAGTG,0.983 ± 0.027
4,CGATGGGAAA,1.01 ± 0.014
5,CGATGGGATC,1.13 ± 0.0074
6,CGATGGGCAG,1.04 ± 0.061
7,CGATGGGGGT,1 ± 0.026
8,CGATGGGTTT,0.969 ± 0.0062
9,CGATGGTGTC,1.01 ± 0.036
10,CGATGGTTGG,1.03 ± 0.07
11,CGATGTTCAC,1.05 ± 0.011
12,CGATGTTGAG,1.002 ± 0.01
13,CGATTAAAGT,0.997 ± 0.031
14,CGATTCTTAA,0.996 ± 0.011
15,CGATTGAGCA,0.994 ± 0.031
16,CGATTGCAG,1.0118 ± 0.00044
17,CGATTGGTGT,1.02 ± 0.021
18,CGATTGTTGA,1.01 ± 0.037
19,CGATTTAATA,1.01 ± 0.051
20,CGATTTAGCG,0.9773 ± 0.009
21,CGATTTCAGG,1.02 ± 0.036
22,CGATTTGGCA,1.01 ± 0.0076
23,CGATTTGTGT,0.984 ± 0.011
24,CGATTTTCGT,0.998 ± 0.044
25,CGATTTTGAG,0.9768 ± 0.0076
26,CGCAAAGGGC,2.12 ± 1.4

row,Sequence,switch fluorescence ratio
1,CGCAACTATG,1.56 ± 0.026
2,CGCAATTAGG,3.97 ± 0.46
3,CGCACAGCAC,1.59 ± 0.023
4,CGCAGCCCAG,1.58 ± 0.086
5,CGCAGGGGGT,1.01 ± 0.039
6,CGCAGTAGTG,1.16 ± 0.032
7,CGCATAGAAA,1.02 ± 0.045
8,CGCATAGGCC,1.77 ± 0.2
9,CGCATCAACG,1.18 ± 0.087
10,CGCATCTGGG,1.09 ± 0.017
11,CGCATGGGGG,1.08 ± 0.011
12,CGCATGTCTT,1.07 ± 0.0029
13,CGCATTTAGA,1.04 ± 0.047
14,CGCATTTGCT,1.15 ± 0.07
15,CGCCATTGTT,1.01 ± 0.011
16,CGCCCCGGCC,1.06 ± 0.097
17,CGCCCCTTGC,1.17 ± 0.031
18,CGCCCTCTCC,2.18 ± 0.23
19,CGCCGAATCT,0.961 ± 0.042
20,CGCCGGCACT,0.992 ± 0.027
21,CGCCGGGAGA,1.05 ± 0.036
22,CGCCGGGGGA,1.05 ± 0.036
23,CGCCGGGGGG,1.04 ± 0.046
24,CGCCTCGTAA,1.191 ± 0.01
25,CGCCTTGGTT,1.02 ± 0.013
26,CGCCTTTTAT,0.98204 ± 0.00038

row,Sequence,switch fluorescence ratio
1,CGCGACGAGT,0.9823 ± 0.0053
2,CGCGAGGGTT,1.008 ± 0.007
3,CGCGATATGG,1.49 ± 0.17
4,CGCGATTTAA,1.056 ± 0.0088
5,CGCGCAGTCG,1.032 ± 0.003
6,CGCGCTGACT,1.05 ± 0.017
7,CGCGGAGATG,1.01 ± 0.035
8,CGCGGAGGGA,1.02 ± 0.0082
9,CGCGGCGGTC,1.02 ± 0.014
10,CGCGGCGTTC,1.023 ± 0.0057
11,CGCGGGAACA,1.022 ± 0.005
12,CGCGGGACTT,2.01 ± 1.4
13,CGCGGGAGTA,1.02 ± 0.018
14,CGCGGGGGTT,1.03 ± 0.035
15,CGCGGGGTAA,1.04 ± 0.011
16,CGCGGGTTGG,1.02 ± 0.017
17,CGCGGGTTTT,1.0416 ± 0.00069
18,CGCGGTCATA,1.023 ± 0.01
19,CGCGTCCGTC,1.03 ± 0.056
20,CGCGTGGATC,1.06 ± 0.047
21,CGCGTGGGGC,1.06 ± 0.015
22,CGCGTGTGTG,1.02 ± 0.038
23,CGCGTTAGGG,1.03 ± 0.011
24,CGCGTTCCGT,1.03 ± 0.019
25,CGCTAAAGTG,1.06 ± 0.086
26,CGCTACTATT,1.12 ± 0.087

row,Sequence,switch fluorescence ratio
1,CGCTAGACAC,1.49 ± 0.054
2,CGCTAGGGAA,1.03 ± 0.045
3,CGCTAGGGTA,1.04 ± 0.036
4,CGCTATATCG,1.09 ± 0.081
5,CGCTATGATG,0.984 ± 0.028
6,CGCTATTGGG,1.046 ± 0.0086
7,CGCTGAGCAC,1.18 ± 0.059
8,CGCTGAGGTA,1 ± 0.03
9,CGCTGAGTAT,0.995 ± 0.021
10,CGCTGATGCT,1.0852 ± 0.00031
11,CGCTGATTAG,1.041 ± 0.0092
12,CGCTGCACGG,1.07 ± 0.038
13,CGCTGCTGGT,0.998 ± 0.031
14,CGCTGGAACT,1.0166 ± 0.00022
15,CGCTGGAGGG,1.02 ± 0.093
16,CGCTGGGGGT,1.16 ± 0.2
17,CGCTGTGGAA,1.04 ± 0.044
18,CGCTGTGGAG,1.01 ± 0.012
19,CGCTGTGGGA,0.973 ± 0.053
20,CGCTTAAAAA,1.02 ± 0.079
21,CGCTTCGGGG,0.9735 ± 0.0082
22,CGCTTGAGTC,1.025 ± 0.0062
23,CGCTTTACCG,1 ± 0.051
24,CGCTTTATGA,1.07 ± 0.024
25,CGCTTTATGT,1.06 ± 0.18
26,CGCTTTCACC,1.218 ± 0.0019

row,Sequence,switch fluorescence ratio
1,CGCTTTTTTT,1.01 ± 0.025
2,CGGAAAAAAG,1.018 ± 0.007
3,CGGAAACTAG,1.022 ± 0.0038
4,CGGAAATAAA,0.968 ± 0.025
5,CGGAACAATG,1.3945 ± 0.00059
6,CGGAACGTGC,1.04 ± 0.045
7,CGGAAGATAT,1.039 ± 0.00018
8,CGGAAGGCCA,0.9836 ± 0.0044
9,CGGAAGTGCC,1.016 ± 0.0014
10,CGGAAGTTGA,1.02 ± 0.067
11,CGGACATGGA,1.011 ± 0.0084
12,CGGACCATAT,1.11 ± 0.017
13,CGGACCATTC,1.27 ± 0.032
14,CGGACTAACG,1.08 ± 0.053
15,CGGACTTTG,0.999 ± 0.026
16,CGGACTTTTC,1.042 ± 0.0018
17,CGGAGCAGTT,2.46 ± 0.41
18,CGGAGGATGC,1.31 ± 0.019
19,CGGAGGGAAT,2.91 ± 2.3
20,CGGAGGGGGA,0.973 ± 0.019
21,CGGAGGTTTG,1.39 ± 0.62
22,CGGAGGTTTT,0.993 ± 0.049
23,CGGAGTAAGA,2.53 ± 0.15
24,CGGAGTACGG,1.06 ± 0.075
25,CGGAGTCCGG,1.04 ± 0.059
26,CGGAGTGGTT,1 ± 0.017

row,Sequence,switch fluorescence ratio
1,CGGAGTTAAT,1.66 ± 0.048
2,CGGATAGAGC,0.9951 ± 0.0085
3,CGGATAGTGG,0.994 ± 0.014
4,CGGATCGTGG,0.987 ± 0.021
5,CGGATCGTTG,0.9655 ± 0.0084
6,CGGATCTTTG,0.977 ± 0.0033
7,CGGATGAGGG,1.01 ± 0.044
8,CGGATGAGTA,0.988 ± 0.029
9,CGGATGGGGA,0.993 ± 0.028
10,CGGATGGGGT,0.973 ± 0.038
11,CGGATGTAAC,1.02 ± 0.024
12,CGGATGTGCA,0.981 ± 0.018
13,CGGATTAAAC,1.04 ± 0.022
14,CGGATTTATA,0.979 ± 0.019
15,CGGCAATGGG,1.77 ± 0.15
16,CGGCACAATA,1.78 ± 0.041
17,CGGCACAGCC,1.05 ± 0.057
18,CGGCACCCGT,0.9653 ± 0.0078
19,CGGCAGGCAG,1.04 ± 0.13
20,CGGCAGGGGT,1.11 ± 0.064
21,CGGCATTTTT,1.03 ± 0.036
22,CGGCCCGCCC,1.27 ± 0.35
23,CGGCCGGTTG,1 ± 0.019
